Measurements reported in paper PMC4344358, “Radiation damage to nucleoprotein complexes in macromolecular crystallography” (Journal of Synchrotron Radiation, 2015).

Biological target: the molecule itself
Experiment: crystal structure; C.Esp1396I (0.7 mg/ml) mixed with 35 bp dsDNA at 4:1 molar ratio; sitting-drop vapour diffusion at 293 K, 50 mM MES pH 7.5, 25% MPD, 40 mM MgCl2; data at 100 K, space group P6(5), 2.8 A; eight datasets of increasing dose from one crystal

B1: C.Esp1396I (natural protein)
chain: MESFLLSKVSFVIKKIRLEKGMTQEDLAYKSNLDRTYISGIERNSRNLTIKSLELIMKGLEVSDVVFFEMLIKEILKHD
notes: C.Esp1396I, bacterial helix-turn-helix controller protein of a restriction-modification system; native protein; protein chains A-D of the deposited entries; also called C-protein; controller C-protein; source: expression and purification as described earlier (McGeehan et al., 2008); pure protein
  stoichiometry N: 4
